T1: human CD32b expressed endogenously on human cells (human, UniProt P31994 43-310)
T1 construct: whole, on cells; The background says that CD32b1 is the form on lymphoid cells and CD32b2 the form on myeloid cells; also called CD32b on primary human B cells, plasma cells, macrophages, BJAB, KARPAS422 and Daudi cells
T1 sequence (looked up): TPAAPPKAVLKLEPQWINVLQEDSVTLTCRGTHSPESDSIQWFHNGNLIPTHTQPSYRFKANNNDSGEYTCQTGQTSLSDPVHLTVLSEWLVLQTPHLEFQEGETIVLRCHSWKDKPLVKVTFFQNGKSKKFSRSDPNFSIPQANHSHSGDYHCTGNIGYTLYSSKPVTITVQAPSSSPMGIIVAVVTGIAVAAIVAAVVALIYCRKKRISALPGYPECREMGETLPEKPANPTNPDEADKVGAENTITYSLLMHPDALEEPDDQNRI

T2: MW82 (huCD32a H131) (human, UniProt P12318)
T2 sequence (receptor, looked up): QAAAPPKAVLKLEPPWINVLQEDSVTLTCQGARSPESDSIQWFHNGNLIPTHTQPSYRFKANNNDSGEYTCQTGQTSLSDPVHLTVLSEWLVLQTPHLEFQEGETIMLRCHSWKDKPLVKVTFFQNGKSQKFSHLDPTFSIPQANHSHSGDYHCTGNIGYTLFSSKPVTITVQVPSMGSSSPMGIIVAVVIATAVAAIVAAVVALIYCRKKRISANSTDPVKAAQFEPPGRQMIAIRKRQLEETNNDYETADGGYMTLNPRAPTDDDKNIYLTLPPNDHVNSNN

T3: WT human CD32b1 expressed on stably transfected cells (human, UniProt P31994 43-310)
T3 construct: also called huCD32b; WT CD32b
T3 sequence: T1 sequence (looked up)

T4: huCD32b-deglyco (human, UniProt P31994 43-222, limits assumed, deglycosylated (deglyco) (so in the source))
T4 construct: Soluble analyte of the SPR assay; also called huCD32b receptor (SPR analyte); human CD32b
T4 sequence: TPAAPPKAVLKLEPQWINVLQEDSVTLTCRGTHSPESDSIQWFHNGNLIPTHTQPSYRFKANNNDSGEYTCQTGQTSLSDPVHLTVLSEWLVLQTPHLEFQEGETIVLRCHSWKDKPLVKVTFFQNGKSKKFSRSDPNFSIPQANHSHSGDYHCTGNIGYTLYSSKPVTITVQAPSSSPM

B1: NOV0281_N297A (antibody, human IgG1, lambda, N297A)
heavy: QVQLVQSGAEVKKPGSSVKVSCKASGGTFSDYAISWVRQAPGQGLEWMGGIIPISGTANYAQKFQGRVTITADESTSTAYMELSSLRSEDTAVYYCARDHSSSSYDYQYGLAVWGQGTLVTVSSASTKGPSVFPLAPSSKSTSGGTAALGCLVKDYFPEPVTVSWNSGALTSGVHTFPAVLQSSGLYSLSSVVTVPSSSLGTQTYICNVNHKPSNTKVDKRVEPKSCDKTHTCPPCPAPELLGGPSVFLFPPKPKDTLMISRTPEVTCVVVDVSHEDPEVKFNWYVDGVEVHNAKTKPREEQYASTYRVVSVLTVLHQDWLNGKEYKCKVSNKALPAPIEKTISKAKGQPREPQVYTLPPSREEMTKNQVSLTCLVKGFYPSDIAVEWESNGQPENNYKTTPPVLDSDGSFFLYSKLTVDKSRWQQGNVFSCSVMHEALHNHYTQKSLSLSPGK
light: DIELTQPPSVSVSPGETASITCSGDKLGDYYVHWYQQKPGQAPVLVIYQDSKRPSGIPERFSGSNSGNTATLTISGTQAEDEADYYCGATDLSPWSIVFGGGTKLTVLGQPKAAPSVTLFPPSSEELQANKATLVCLISDFYPGAVTVAWKADSSPVKAGVETTTPSKQSNNKYAASSYLSLTPEQWKSHRSYSCQVTHEGSTVEKTVAPTECS
notes: also called NOV0281 on a human IgG1 [N297A] scaffold
B2: NOV0308_N297A (antibody, human IgG1, lambda, N297A)
heavy: not shown
light: DIELTQPPSVSVSPGQTASITCSGDNLGSKYVHWYQQKPGQAPVLVIYDDNKRPSGIPERFSGSNSGNTATLTISGTQAEDEADYYCQSWTLGNWVFGGGTKLTVLGQPKAAPSVTLFPPSSEELQANKATLVCLISDFYPGAVTVAWKADSSPVKAGVETTTPSKQSNNKYAASSYLSLTPEQWKSHRSYSCQVTHEGSTVEKTVAPTECS
notes: also called NOV0308 on a human IgG1 [N297A] scaffold
B3: NOV1218 (antibody, human IgG1, lambda, N297A)
heavy chain: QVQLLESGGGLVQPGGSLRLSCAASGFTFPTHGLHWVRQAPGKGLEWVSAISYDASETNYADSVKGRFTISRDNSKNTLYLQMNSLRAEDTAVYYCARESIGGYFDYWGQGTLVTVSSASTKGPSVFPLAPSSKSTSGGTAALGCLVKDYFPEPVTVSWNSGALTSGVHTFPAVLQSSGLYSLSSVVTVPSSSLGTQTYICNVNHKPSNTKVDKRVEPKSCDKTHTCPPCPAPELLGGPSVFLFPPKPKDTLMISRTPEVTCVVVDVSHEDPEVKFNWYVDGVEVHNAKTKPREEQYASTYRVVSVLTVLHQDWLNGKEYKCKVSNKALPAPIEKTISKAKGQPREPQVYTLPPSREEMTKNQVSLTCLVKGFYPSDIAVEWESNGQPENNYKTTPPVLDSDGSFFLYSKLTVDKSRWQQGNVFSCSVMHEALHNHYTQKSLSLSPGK
light chain: SYELTQPLSVSVALGQTARITCSGDALGKNTVSWYQQKPGQAPVLVIYDDTDRPSGIPERFSGSNSGNTATLTISRAQAGDEADYYCSSTDLSTVVFGGGTKLTVLGQPKAAPSVTLFPPSSEELQANKATLVCLISDFYPGAVTVAWKADSSPVKAGVETTTPSKQSNNKYAASSYLSLTPEQWKSHRSYSCQVTHEGSTVEKTVAPTECS
notes: also called NOV1218_N297A; NOV1218 N297A
B4: NOV1219 (antibody, human IgG1, lambda, N297A)
heavy chain: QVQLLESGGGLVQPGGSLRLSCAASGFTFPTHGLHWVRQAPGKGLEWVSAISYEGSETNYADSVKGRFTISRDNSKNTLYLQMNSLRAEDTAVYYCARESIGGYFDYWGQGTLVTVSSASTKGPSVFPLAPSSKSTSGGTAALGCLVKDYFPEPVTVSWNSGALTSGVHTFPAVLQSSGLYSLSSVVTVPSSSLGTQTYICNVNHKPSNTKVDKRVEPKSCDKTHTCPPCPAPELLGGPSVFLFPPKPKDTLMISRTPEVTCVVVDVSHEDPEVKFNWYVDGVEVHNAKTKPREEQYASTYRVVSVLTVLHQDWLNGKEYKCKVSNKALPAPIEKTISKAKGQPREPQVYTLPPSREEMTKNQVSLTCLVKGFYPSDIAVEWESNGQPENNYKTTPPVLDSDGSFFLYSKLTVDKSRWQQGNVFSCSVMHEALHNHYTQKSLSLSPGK
light chain: B3 light chain
notes: also called NOV1219_N297A; NOV1219 on a human IgG1 [N297A] scaffold
B5: NOV1216_N297A (antibody, human IgG1, lambda, N297A)
heavy: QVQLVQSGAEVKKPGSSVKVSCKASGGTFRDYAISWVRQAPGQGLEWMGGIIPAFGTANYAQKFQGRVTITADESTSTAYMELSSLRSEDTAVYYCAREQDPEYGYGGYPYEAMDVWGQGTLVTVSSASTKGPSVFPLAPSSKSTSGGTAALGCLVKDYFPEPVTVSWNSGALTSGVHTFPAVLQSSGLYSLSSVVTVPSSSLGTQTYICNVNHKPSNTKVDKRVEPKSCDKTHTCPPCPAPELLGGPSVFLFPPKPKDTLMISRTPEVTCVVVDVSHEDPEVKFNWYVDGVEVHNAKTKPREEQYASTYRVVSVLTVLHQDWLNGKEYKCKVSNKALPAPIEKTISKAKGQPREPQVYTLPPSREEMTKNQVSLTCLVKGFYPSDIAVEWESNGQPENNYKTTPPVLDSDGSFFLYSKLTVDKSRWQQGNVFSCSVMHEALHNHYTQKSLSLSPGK
light: SYELTQPLSVSVALGQTARITCSGDNIPQHSVHWYQQKPGQAPVLVIYDDTERPSGIPERFSGSNSGNTATLTISRAQAGDEADYYCSSWDSSMDSVVFGGGTKLTVLGQPKAAPSVTLFPPSSEELQANKATLVCLISDFYPGAVTVAWKADSSPVKAGVETTTPSKQSNNKYAASSYLSLTPEQWKSHRSYSCQVTHEGSTVEKTVAPTECS
notes: Human IgG1 with N297A (Fc silent); also called Fc silent NOV1216
B6: NOV2107_N297A (antibody, human IgG1, lambda, N297A)
heavy: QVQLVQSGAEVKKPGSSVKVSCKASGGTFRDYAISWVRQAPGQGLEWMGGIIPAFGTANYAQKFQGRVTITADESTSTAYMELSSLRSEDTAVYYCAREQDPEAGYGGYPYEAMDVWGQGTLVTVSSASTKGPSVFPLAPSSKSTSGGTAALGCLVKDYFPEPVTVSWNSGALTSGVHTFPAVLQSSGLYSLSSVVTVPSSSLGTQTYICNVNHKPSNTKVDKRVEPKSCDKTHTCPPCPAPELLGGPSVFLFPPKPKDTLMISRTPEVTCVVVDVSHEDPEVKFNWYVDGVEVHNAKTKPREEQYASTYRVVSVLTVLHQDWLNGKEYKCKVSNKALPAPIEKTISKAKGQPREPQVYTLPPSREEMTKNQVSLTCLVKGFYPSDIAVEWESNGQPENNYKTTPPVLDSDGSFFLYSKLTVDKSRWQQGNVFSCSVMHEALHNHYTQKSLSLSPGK
light: B5 light
notes: CDR-H3 mutant of NOV1216; human IgG1 with N297A; also called Fc silent N297A variant of NOV2107
B7: NOV2108_N297A (antibody, human IgG1, lambda, N297A)
heavy: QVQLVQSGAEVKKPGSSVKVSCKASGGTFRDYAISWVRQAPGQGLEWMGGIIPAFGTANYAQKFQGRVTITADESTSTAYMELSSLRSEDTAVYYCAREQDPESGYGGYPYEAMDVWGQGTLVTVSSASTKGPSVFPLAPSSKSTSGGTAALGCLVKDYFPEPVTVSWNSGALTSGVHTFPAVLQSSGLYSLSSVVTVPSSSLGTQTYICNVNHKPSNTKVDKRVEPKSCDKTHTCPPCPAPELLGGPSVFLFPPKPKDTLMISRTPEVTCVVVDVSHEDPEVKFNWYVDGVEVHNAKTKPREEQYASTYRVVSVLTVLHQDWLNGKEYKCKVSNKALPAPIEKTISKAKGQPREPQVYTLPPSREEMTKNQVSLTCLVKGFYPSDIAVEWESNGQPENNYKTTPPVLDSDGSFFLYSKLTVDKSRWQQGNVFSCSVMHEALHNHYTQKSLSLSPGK
light: B5 light
notes: CDR-H3 mutant of NOV1216; human IgG1 with N297A; Alexa Fluor 647-labelled in flow cytometry; also called Fc silent NOV2108 [N297A]
B8: NOV2112 N297A (antibody, human IgG1, lambda, N297A)
heavy chain: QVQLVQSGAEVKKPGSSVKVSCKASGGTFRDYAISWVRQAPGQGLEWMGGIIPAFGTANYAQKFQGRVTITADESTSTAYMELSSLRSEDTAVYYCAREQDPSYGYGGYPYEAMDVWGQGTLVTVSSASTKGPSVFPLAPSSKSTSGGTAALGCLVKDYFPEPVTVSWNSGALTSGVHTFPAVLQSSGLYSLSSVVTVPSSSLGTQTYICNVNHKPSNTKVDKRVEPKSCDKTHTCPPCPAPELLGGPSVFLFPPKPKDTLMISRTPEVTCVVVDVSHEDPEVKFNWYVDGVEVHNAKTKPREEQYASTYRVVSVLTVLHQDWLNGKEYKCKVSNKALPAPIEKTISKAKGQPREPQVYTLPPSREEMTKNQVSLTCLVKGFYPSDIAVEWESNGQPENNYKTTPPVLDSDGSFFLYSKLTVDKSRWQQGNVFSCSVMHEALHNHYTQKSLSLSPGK
light chain: B5 light
B9: afucosylated NOV2108 (antibody, human IgG1, lambda)
heavy: not shown
light: B5 light
modifications: afucosylated: N-glycan structure lacking core fucose
notes: also called NOV2108, afucosylated antibody; NOV2108 (afucosylated format)

Key:
[1] = target: T1, human CD32b expressed endogenously on …; assay: flow cytometry on BJAB cells; biotinylated hIgG1 [N297A] antibody, streptavidin-PE, GMFI
Description: The binding of huCD32b specific antibodies to the BJAB cell line was evaluated by flow cytometry. BJAB cells were collected and suspended in FACS Buffer (PBS1× containing 2% BSA, 2 mM EDTA), counted and suspended at 0.25×10⁶ cells per ml. 50'000 cells/well (200 μl) were then dispensed in V-bottomed 96 well plates. Plates were spun for 5 min at 1500 rpm and the supernatant discarded. […] Biotinylation of antibodies was performed using the Lightning-Link biotin conjugation kit (Type A) from Innova Biosciences (Cat. No 704-0010) according to the supplier's instructions. After 2 successive washes with FACS buffer, cells were suspended in 50 μl FACS buffer containing a 1/500 dilution of Streptavidin-PE (Invitrogen 521388) and further incubated for 20 min at 4° C. Cells were washed twice and suspended in 200 μl FACS buffer and acquired on a FACS Fortessa. The Geometric Mean Fluorescence (GMFI in the PE channel) was used as a measure of the binding intensity of each antibody.

[2] = target: T5, huCD64 (Fc gamma RI) expressed on stable CHO cells (human, UniProt P12314 16-374); assay: flow cytometry on stable CHO cells expressing huCD64; hIgG1 [N297A] antibody, GMFI; the text ascribes this binding to the Fc portion
T5 construct: whole, on cells; also called CHO-huCD64
T5 sequence (P12314 16-374): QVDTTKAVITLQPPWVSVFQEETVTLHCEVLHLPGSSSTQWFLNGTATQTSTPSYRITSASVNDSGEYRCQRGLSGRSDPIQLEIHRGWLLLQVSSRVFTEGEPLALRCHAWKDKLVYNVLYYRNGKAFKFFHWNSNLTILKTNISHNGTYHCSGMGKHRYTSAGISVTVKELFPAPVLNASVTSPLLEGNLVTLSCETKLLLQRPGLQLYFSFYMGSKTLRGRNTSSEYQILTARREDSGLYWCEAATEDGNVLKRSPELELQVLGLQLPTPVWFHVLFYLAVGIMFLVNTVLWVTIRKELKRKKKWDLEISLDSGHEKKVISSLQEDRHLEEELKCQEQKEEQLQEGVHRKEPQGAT
Description: (§1) The binding of huCD32b specific antibodies was evaluated by flow cytometry using stable CHO cell lines expressing the low affinity human CD16 variants (i.e huCD16a or huCD16b variants) and the high affinity huCD64 (FcγRI). CHO cells transfected with huCD16a variants were also transfected with the common Fcγ chain in order to allow for surface expression. CHO cells were collected following detachment with PBS containing 2 mM EDTA and pelleted. Cell pellets were washed once in PBS and suspended in FACS Buffer (PBS1× containing 2% BSA, 2 mM EDTA and 0.1% NaN3), counted and suspended at 0.25×10⁶ cells per ml. 50'000 cells/well (200 μl) were then dispensed in V-bottomed 96 well plates. Plates were spun for 5 min at 1600 rpm and the supernatant discarded. […] After 3 successive washes with FACS buffer, cells were suspended in 50 μl FACS buffer containing a 1/100 dilution of the F(ab′)2 anti-human F(ab′)2-PE (Jackson Immunoresearch#109-116-097) and further incubated 30 min at 4° C. Cells were washed twice and suspended in 200 μl FACS buffer and acquired on a FACS Canto II (acquisition of 5000 cells in the live cell gate). The Geometric Mean Fluorescence (GMFI in the PE channel) was used as a measure of the binding intensity of each antibody.

MW82 (huCD32a H131) = target: T2, MW82 (huCD32a H131); assay: flow cytometry on stable CHO cells expressing huCD32a H131 (MW82); hIgG1 [N297A] antibody, GMFI
Description: as §1, with “HuCD32b and huCD32a have high degree” for “The binding”, “sequence homology. […]” for “huCD32b specific antibodies was evaluated by flow cytometry using stable CHO cell lines expressing the low affinity human CD16 variants (i.e huCD16a or huCD16b variants) and the high affinity huCD64 (FcγRI). CHO cells transfected with huCD16a variants were also transfected with the common Fcγ chain in order to allow for surface expression.”

[3] = target: T1, human CD32b expressed endogenously on …; assay: flow cytometry titration (GMFI), biotinylated IgG1 [N297A] on purified primary human B cells, CD20+ gate
Description: Plates were spun for 5 min at 1500 rpm and the supernatant discarded. […] Biotinylation of antibodies was performed using the Lightning-Link biotin conjugation kit (Type A) from Innova Biosciences (Cat. No 704-0010) according to the supplier's instructions. […] Cells were washed twice and suspended in 200 μl FACS buffer and acquired on a FACS Fortessa.

[4] = target: T3, WT human CD32b1 expressed on stably …; assay: flow cytometry on stable CHO cells expressing huCD32b (MW83); hIgG1 [N297A] antibody, GMFI
Description: as §1, with “HuCD32b and huCD32a have high degree” for “The binding”, “sequence homology. […]” for “huCD32b specific antibodies was evaluated by flow cytometry using stable CHO cell lines expressing the low affinity human CD16 variants (i.e huCD16a or huCD16b variants) and the high affinity huCD64 (FcγRI). CHO cells transfected with huCD16a variants were also transfected with the common Fcγ chain in order to allow for surface expression.”

[5] = target: T3, WT human CD32b1 expressed on stably …; assay: flow cytometry, Alexa-647 labelled hIgG1 [N297A] antibody, ΔMFI; stable BJAB cells expressing huCD32b
huCD32b-deglyco [6] = target: T4, huCD32b-deglyco; assay: SPR (Biacore T200), IgG amine-coupled on the chip, huCD32b-deglyco analyte 0.61-5000 nM, 1:1 binding model; mean and standard deviation of the runs
Description: (§2) Three independent direct binding assays with IgGs covalently immobilized on the biosensor and huCD32b receptor serving as analyte were performed to determine the binding affinities of the IgGs for huCD32b. Kinetic data were acquired by subsequent injections of analyte dilution series on all flow cells. Flow cell 1 (chip 1) served as a reference.
(§3) A dilution series of huCD32b-deglyco, 0.61-5000 nM (1:2 dilution series) in running buffer was injected over the surface (flow rate: 30 μl/min, association time: 60 sec, dissociation time: 120 sec). The chip surface was regenerated with one basic wash step before each analyte injection (30 μl/min; contact time: 30 sec, stabilization period: 250 sec). Data were evaluated using the Biacore T200 evaluation software version 1.0. The raw data were double referenced, i.e. the response of the measuring flow cell was corrected for the response of the reference flow cell, and in a second step the response of a blank injection was subtracted. Outlier sensorgrams were removed if necessary. The sensorgrams were fitted by applying a 1:1 binding model to calculate kinetic rate constants and dissociation equilibrium constants. Rmax was set at global whereas RI was fitted locally. Data were processed individually for each run. The generated values were used to calculate average values and standard deviations of the respective kinetic constants.

huCD32b-deglyco [7] = target: T4, huCD32b-deglyco; assay: SPR (Biacore T200), IgG amine-coupled on the chip, huCD32b-deglyco analyte 0.61-5000 nM, 1:1 binding model; single experiment
Description: as §2, §3

Binder	binding affinity (printed 'BJABs:') [1] [nM]	binding result [2]	binding result (MW82 (huCD32a H131))	further results
B1	2.4	binds	binds	binding affinity [3]: 5.4 nM
B2	4.2	binds	–	–
B3	19	binds	binds	–
B4	110	binds	no binding (tested: 1000 nM)	EC50 (read off the curve) [4]: ~30 nM
B5	0.7	binds	–	binding affinity [3]: 1.4 nM
B6	–	–	–	binding result [5]: binds
B7	–	–	–	Kd (huCD32b-deglyco [6]): 18 nM; koff (huCD32b-deglyco [6]): 0.29 s⁻¹; kon (huCD32b-deglyco [6]): 1.5e+07 M⁻¹ s⁻¹
B8	–	–	–	binding result [5]: binds
B9	–	–	–	Kd (huCD32b-deglyco [7]): 16 nM; koff (huCD32b-deglyco [7]): 0.11 s⁻¹; kon (huCD32b-deglyco [7]): 6.8e+06 M⁻¹ s⁻¹

Reference: patent US20170198040A1 (Novartis, published 2017)
